The assay deals with CD30 (analyte in SPR) (UniProt P28908). Description: SPR, 25° C. pH 7.4, scFv captured on chip, CD30 as analyte, average value. For orientation: Surface plasmon resonance follows binding to a sensor surface in real time, without labels.
Sequence of CD30 (analyte in SPR) (P28908 19-379 limits assumed): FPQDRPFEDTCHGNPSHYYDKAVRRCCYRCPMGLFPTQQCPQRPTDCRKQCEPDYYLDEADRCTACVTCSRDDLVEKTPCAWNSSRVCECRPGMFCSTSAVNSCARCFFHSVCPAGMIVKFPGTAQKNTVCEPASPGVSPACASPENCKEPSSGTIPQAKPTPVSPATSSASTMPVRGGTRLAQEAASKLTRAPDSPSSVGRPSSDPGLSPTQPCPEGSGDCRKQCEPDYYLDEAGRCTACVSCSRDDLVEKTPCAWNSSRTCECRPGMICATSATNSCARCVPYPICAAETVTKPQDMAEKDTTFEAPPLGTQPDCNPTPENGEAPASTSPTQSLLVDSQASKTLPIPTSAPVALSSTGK

B1: anti-CD30 clone 52-2 scFv (scFv, part only; not given: Linker, domain order, tag, V domains shown, not shown: another chain or arm of the molecule; small tags and cut ends)
VH: EVQLVESGGGLVQPGGSLRLSCAASGFTFSSYYMHWVRQAPGKGLEWVSAISWSGGSTYYADSVKGRFTISRDNSKNTLYLQMNSLRAEDTAVYYCARDRFMPFIPNTLGFDVWGQGTLVTVSS
VL: DIQMTQSPSSLSASVGDRVTITCQASQDISNYLNWYQQKPGKAPKLLIYVASNLETGVPSRFSGSGSGTDFTFTISSLQPEDIATYYCQQDADVPLTFGQGTKVEIK
On to B1, for which the dissociation constant (Kd) (usually the equilibrium constant for the complex coming apart) stood at 0.8 nM.

The values above are taken from patent US20220275098A1.
